The source of these data is patent publication US20220363761A1 (MERUS N V, published 2022).

T1: human LAG-3 (expressed on 293FF cells) (human, UniProt P18627 23-525)
T1 construct: whole, on cells; also called CD223
T1 sequence (looked up): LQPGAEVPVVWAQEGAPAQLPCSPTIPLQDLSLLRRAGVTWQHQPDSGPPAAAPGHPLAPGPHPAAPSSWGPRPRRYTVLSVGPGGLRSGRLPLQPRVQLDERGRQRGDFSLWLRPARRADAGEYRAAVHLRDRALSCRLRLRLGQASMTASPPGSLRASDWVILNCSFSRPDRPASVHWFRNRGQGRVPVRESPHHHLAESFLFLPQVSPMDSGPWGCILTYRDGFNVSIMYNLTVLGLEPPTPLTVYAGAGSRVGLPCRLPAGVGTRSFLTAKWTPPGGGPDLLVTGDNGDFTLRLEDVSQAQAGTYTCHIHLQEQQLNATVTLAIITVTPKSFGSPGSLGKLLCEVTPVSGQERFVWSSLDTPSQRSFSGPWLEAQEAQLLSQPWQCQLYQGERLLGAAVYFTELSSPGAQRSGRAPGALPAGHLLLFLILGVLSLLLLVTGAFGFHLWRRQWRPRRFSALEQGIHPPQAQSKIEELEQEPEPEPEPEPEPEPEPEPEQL

B1: PD-1xLAG-3 bispecific antibody SEQ ID NO: 1 × SEQ ID NO: 11 (bispecific antibody)
heavy (part 1 of 2) 1: not shown
heavy (part 2 of 2) 1: not shown
heavy (part 1 of 2) 2: QVQLQESGPGLVRPSETLSLTCTVSGGSISSYSWSWIRQPPGKGLEWIGYIDYSGSTNYNPSLKSRVTISVDTSKTQFSLKLSSVSAADTAVYYCAKDLLYKWNYVEGFDIWGQGTTVTVSSASTKGPSVFPLAPSSKSTSGGTAALGCLVKDYFPEPVTVSWNSGALTSGVHTFPAVLQSSGLYSLSSVVTVPSSSLGTQTYICNVNHKPSNTKVDKRV
heavy (part 2 of 2) 2: not shown
light: not shown
notes: IgG1; common light chain; also called PB1; not shown: hinge (IgG1)
B2: PD-1xLAG-3 bispecific antibody SEQ ID NO: 5 × SEQ ID NO: 11 (bispecific antibody)
heavy (part 1 of 2) 1: not shown
heavy (part 2 of 2) 1: not shown
heavy (part 1 of 2) 2: B1 heavy (part 1 of 2) 2
heavy (part 2 of 2) 2: not shown
light: not shown
notes: IgG1; common light chain; also called PB13; not shown: hinge (IgG1)
B3: PD-1xLAG-3 bispecific antibody SEQ ID NO: 6 × SEQ ID NO: 15 (bispecific antibody)
heavy (part 1 of 2) 1: not shown
heavy (part 2 of 2) 1: not shown
heavy (part 1 of 2) 2: QVQLVQSGAEVKKPGASVKVSCKASGYTFTSYGISWVRQAPGQGLEWMGWISAYSGNTNYAQKLQGRVTMTTDTSTSTAYMELRSLRSDDTAVYYCARDGSGWDDFDYWGQGTLVTVSSASTKGPSVFPLAPSSKSTSGGTAALGCLVKDYFPEPVTVSWNSGALTSGVHTFPAVLQSSGLYSLSSVVTVPSSSLGTQTYICNVNHKPSNTKVDKRV
heavy (part 2 of 2) 2: not shown
light: not shown
notes: IgG1; common light chain; also called PB11; not shown: hinge (IgG1)
B4: PD-1xLAG-3 bispecific antibody SEQ ID NO: 5 × SEQ ID NO: 15 (bispecific antibody)
heavy (part 1 of 2) 1: not shown
heavy (part 2 of 2) 1: not shown
heavy (part 1 of 2) 2: B3 heavy (part 1 of 2) 2
heavy (part 2 of 2) 2: not shown
light: not shown
notes: IgG1; common light chain; also called PB17; not shown: hinge (IgG1)
B5: PD-1xLAG-3 bispecific antibody SEQ ID NO: 1 × SEQ ID NO: 14 (bispecific antibody)
heavy (part 1 of 2) 1: not shown
heavy (part 2 of 2) 1: not shown
heavy (part 1 of 2) 2: EVQLVQSGSELKKPGASVKVSCKASGYTFTTNALNWVRQAPGQGLEWMGWINTHTGNPTYAQGFIGRFVFSLDTSVSTAYLQIRSLKAEDTAVYYCAREPNWGVYFDYWGQGTLVTVSSASTKGPSVFPLAPSSKSTSGGTAALGCLVKDYFPEPVTVSWNSGALTSGVHTFPAVLQSSGLYSLSSVVTVPSSSLGTQTYICNVNHKPSNTKVDKRV
heavy (part 2 of 2) 2: not shown
light: not shown
notes: IgG1; common light chain; also called PB4; not shown: hinge (IgG1)
B6: PD-1xLAG-3 bispecific antibody SEQ ID NO: 6 × SEQ ID NO: 14 (bispecific antibody)
heavy (part 1 of 2) 1: not shown
heavy (part 2 of 2) 1: not shown
heavy (part 1 of 2) 2: B5 heavy (part 1 of 2) 2
heavy (part 2 of 2) 2: not shown
light: not shown
notes: IgG1; common light chain; also called PB10; PD-1xLAG-3 bispecific antibody 2; not shown: hinge (IgG1)

One assay has as its target T1, human LAG-3 (expressed on 293FF cells). Briefly: FACS on 293FF cells stably transfected with human LAG-3. The procedure:
(§1) The binding of bispecific antibodies was analyzed by FACS using cell lines stably transfected with human LAG-3 or rhesus LAG-3, or transiently transfected with human PD-1 or cynomolgus PD-1. […] IgG specific binding was measured by FACS using a 8-step, 5-fold dilution starting at 50 ug/ml. A goat-anti-human PE was used as secondary detection antibody. Cells w/o staining or only secondary detection antibody were included as negative assay controls.
For the molecule B1, the binding result is “binds”.
Regarding B2, the binding result is “binds”.
As to B3, the binding result is recorded as “binds”.
On to B4, for which the binding result is “binds”.
For the molecule B5, the binding result is “binds”.
Regarding B6, the binding result is reported as “binds”.

The target of the next assay is T2, human PD-1 (expressed on cells) (human, UniProt Q15116 25-288). Kind of assay: cell-based or functional assay.
T2 sequence (Q15116 25-288): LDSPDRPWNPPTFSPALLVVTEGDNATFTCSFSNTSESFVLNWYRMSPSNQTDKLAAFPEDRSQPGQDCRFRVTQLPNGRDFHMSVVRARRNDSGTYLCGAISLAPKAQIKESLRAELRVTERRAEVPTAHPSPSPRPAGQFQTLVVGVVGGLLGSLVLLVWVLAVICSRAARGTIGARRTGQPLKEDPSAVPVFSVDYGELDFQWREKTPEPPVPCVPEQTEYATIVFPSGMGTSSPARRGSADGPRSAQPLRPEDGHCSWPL
As for B5, the “EC50 (read off the curve); PD-1/PD-L1 reporter assay, luciferase fold induction” value (“EC50 … luciferase fold induction” for short) was approximately 1 µg/mL.
For the molecule B6, the “EC50 … luciferase fold induction” value is approximately 1 µg/mL.

A further assay has as its target T2, human PD-1 (expressed on cells). Briefly: cell-based or functional assay. The source holds these as a separate data set.
Regarding B1, the “EC50 … luciferase fold induction” value is approximately 0.5 µg/mL.
For the molecule B2, the “EC50 … luciferase fold induction” value was approximately 0.7 µg/mL.

The next assay shares this target. Kind of assay: cell-based or functional assay. This is another data set of the same source.
B3: the “EC50 … luciferase fold induction” value is approximately 1 µg/mL.
On to B4, for which the “EC50 … luciferase fold induction” value was approximately 2 µg/mL.

For the next assay the target is unchanged. Briefly: cell-based or functional assay. This is another data set of the same source.
B1: the “AUC relative to positive control, PD-1/LAG-3 reporter assay” value (shortened to “AUC relative to positive control”) stood at 215% and the “EC50 (nM) PD-1/LAG-3 reporter assay” value was determined as 19.1 nM.
Turning to B2, the “AUC relative to positive control” value was 218% and the “EC50 (nM) PD-1/LAG-3 reporter assay” value worked out at 10.1 nM.
For the molecule B3, the “AUC relative to positive control” value amounted to 276% and the “EC50 (nM) PD-1/LAG-3 reporter assay” value was found to be 12.4 nM.
In the same order, the values of B4 are 293% and 12.9 nM.
For the molecule B5, the “AUC relative to positive control” value was found to be 271% and the “EC50 (nM) PD-1/LAG-3 reporter assay” value is 9.96 nM.
B6: the “AUC relative to positive control” value came to 246% and the “EC50 (nM) PD-1/LAG-3 reporter assay” value stood at 18 nM.

Another assay deals with cynomolgus PD-1 (expressed on 293FF cells) (cynomolgus, UniProt B0LAJ3 25-288). Kind of assay: FACS on 293FF cells transiently transfected with cynomolgus PD-1. How it is done: as §1
Chain of cynomolgus PD-1 (expressed on 293FF cells) (B0LAJ3 entry or part of it limits assumed): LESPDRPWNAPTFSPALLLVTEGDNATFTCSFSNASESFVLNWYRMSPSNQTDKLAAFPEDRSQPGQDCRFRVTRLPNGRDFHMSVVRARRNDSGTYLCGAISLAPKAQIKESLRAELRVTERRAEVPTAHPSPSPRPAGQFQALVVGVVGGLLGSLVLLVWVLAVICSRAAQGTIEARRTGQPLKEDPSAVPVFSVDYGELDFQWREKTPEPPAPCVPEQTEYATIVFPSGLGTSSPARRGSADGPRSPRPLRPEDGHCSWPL
For B1, the binding result was “binds”.
For the molecule B2, the binding result is on record as “binds”.
Take B3: the binding result is given as “binds”.
Regarding B4, the binding result is given as “binds”.
Consider B5, for which the binding result is reported as “binds”.
In the case of B6, the binding result is listed as “binds”.
